Experimental data reported in US20100248359A1 (Chugai, published 2010).
Substitutions are numbered along the chain they refer to. Read-outs that look alike come from different tables or passages of the source. Values belong to the binder of their own block, whether it stands above or below them.

Legend:
[1] = biological target: T1, full-length human GPC3 (human, UniProt P51654 25-554); test: flow cytometry, antibody at 5 µg/mL, HepG2 cells
T1 construct: On CHO (DXB11) or SK-HEP-1 (SK-03) transfectants; also used here for the GPC3 on the hepatoma lines HepG2 and HuH-7; also called human glypican 3
Experimental: (§1) Cells were dissociated with 1 mM EDTA pH 8.0 (GIBCO)/PBS and suspended in FACS buffer (1% FBS/PBS) at 1×10⁶ cells/mL. The suspension was dispensed to a Multiscreen-HV Filter Plate (Millipore) at 100 μL/well and the supernatant was removed by centrifugation. An anti-GPC3 antibody diluted to an appropriate concentration was added and reacted on ice for 30 minutes. The cells were washed once with FACS buffer and an FITC-labeled anti-mouse IgG antibody was added and reacted on ice for 30 minutes. After the reaction, the cells were centrifuged at 500 rpm for 1 minute, and the supernatant was removed. The cells were suspended in 400 μL of FACS buffer and subjected to flow cytometry. EPICS ELITE ESP (Beckman Coulter) was used as a flow cytometer. A gate was set on the living cell population with the histogram of forward scatter and side scatter.

[2] = biological target: T1, full-length human GPC3; test: flow cytometry, antibody at 5 µg/mL, HuH-7 cells
Experimental: as §1

[3] = biological target: T2, soluble form of GPC3 core protein (human, UniProt P51654 25-563); test: ELISA on plate coated with soluble GPC3 core protein
T2 construct: not shown: His tag added to the C-terminus
Target sequence in this assay (P51654 25-563 S495A/S509A, form in doubt): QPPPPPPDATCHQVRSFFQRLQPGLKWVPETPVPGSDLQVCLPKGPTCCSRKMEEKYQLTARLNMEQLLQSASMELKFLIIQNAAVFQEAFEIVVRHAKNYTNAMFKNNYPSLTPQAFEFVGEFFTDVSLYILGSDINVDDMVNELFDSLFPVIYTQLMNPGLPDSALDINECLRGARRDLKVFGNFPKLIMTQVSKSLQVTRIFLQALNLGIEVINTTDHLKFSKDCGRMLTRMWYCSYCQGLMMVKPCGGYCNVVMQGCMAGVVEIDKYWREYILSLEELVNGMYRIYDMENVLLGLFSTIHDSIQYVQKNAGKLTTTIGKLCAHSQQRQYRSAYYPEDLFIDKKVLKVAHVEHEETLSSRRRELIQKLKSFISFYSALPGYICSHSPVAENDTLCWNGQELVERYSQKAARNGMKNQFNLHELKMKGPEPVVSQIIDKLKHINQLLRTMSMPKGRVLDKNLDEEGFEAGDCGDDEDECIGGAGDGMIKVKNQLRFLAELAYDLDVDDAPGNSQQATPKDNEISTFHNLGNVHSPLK

[4] = biological target: T1, full-length human GPC3; test: BIACORE; the form of GPC3 used is not given
[5] = biological target: T2, soluble form of GPC3 core protein; test: competitive ELISA on coated soluble GPC3 core protein; labelled competitor biotin-M1E7;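 further: Biotin-labelled antibody added as 10 µL at 10 µg/mL for 1 h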
Target sequence in this assay (P51654 25-563 S495A/S509A, form in doubt): as above
Experimental: (§2) The antibodies were biotinylated using a Biotin Labeling Kit (Roche). The soluble form of GPC3 core protein was diluted to 1 μg/mL with the coating buffer and added to a plate at 100 μL/well and stored at 4° C. overnight to coat the plate. On the next day, 200 μL of the substrate buffer was added for blocking. The plate was left at 4° C. overnight or longer and an anti-GPC3 antibody was added to the plate at 100 μL/well and reacted at room temperature for 1 hour. After that, without washing of the plate, 10 μL of 10 μg/mL biotin-labeled anti-GPC3 antibody was added and further reacted for 1 hour. The plate was washed with 300 μL/well of the rinse buffer for 3 times. AP-streptavidin conjugate (ZYMED) was diluted to 1000-fold with the dilution buffer and added at 100 μL/well and reacted at room temperature for 1 hour. The plate was washed with 300 μL/well of the rinse buffer for 5 times.

[6] = biological target: T2, soluble form of GPC3 core protein; test: competitive ELISA on coated soluble GPC3 core protein; labelled competitor biotin-M5B9;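 further: Biotin-labelled antibody added as 10 µL at 10 µg/mL for 1 h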
Target sequence in this assay (P51654 25-563 S495A/S509A, form in doubt): as above
Experimental: as §2

[7] = biological target: T2, soluble form of GPC3 core protein; test: competitive ELISA on coated soluble GPC3 core protein; labelled competitor biotin-M6B1;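 further: Biotin-labelled antibody added as 10 µL at 10 µg/mL for 1 h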
Target sequence in this assay (P51654 25-563 S495A/S509A, form in doubt): as above
Experimental: as §2

[8] = biological target: T2, soluble form of GPC3 core protein; test: competitive ELISA on coated soluble GPC3 core protein; labelled competitor biotin-L9G11;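 further: Biotin-labelled antibody added as 10 µL at 10 µg/mL for 1 h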
Experimental: (§3) The obtained antibodies were classified according to the epitopes by a competitive ELISA. The antibodies were biotinylated using a Biotin Labeling Kit (Roche). The soluble form of GPC3 core protein was diluted to 1 μg/mL with the coating buffer and added to a plate at 100 μL/well and stored at 4° C. overnight to coat the plate. On the next day, 200 μL of the substrate buffer was added for blocking. The plate was left at 4° C. overnight or longer and an anti-GPC3 antibody was added to the plate at 100 μL/well and reacted at room temperature for 1 hour. After that, without washing of the plate, 10 μL of 10 μg/mL biotin-labeled anti-GPC3 antibody was added and further reacted for 1 hour. The plate was washed with 300 μL/well of the rinse buffer for 3 times. AP-streptavidin conjugate (ZYMED) was diluted to 1000-fold with the dilution buffer and added at 100 μL/well and reacted at room temperature for 1 hour. The plate was washed with 300 μL/well of the rinse buffer for 5 times.

[9] = biological target: T2, soluble form of GPC3 core protein; test: competitive ELISA on coated soluble GPC3 core protein; labelled competitor biotin-M10D2;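 further: Biotin-labelled antibody added as 10 µL at 10 µg/mL for 1 h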
Target sequence in this assay (P51654 25-563 S495A/S509A, form in doubt): as above
Experimental: as §2

[10] = biological target: T2, soluble form of GPC3 core protein; test: competitive ELISA on coated soluble GPC3 core protein; labelled competitor biotin-M11F1;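 further: Biotin-labelled antibody added as 10 µL at 10 µg/mL for 1 h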
Target sequence in this assay (P51654 25-563 S495A/S509A, form in doubt): as above
Experimental: as §2

[11] = biological target: T2, soluble form of GPC3 core protein; test: competitive ELISA on coated soluble GPC3 core protein; labelled competitor biotin-M18D4;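 further: Biotin-labelled antibody added as 10 µL at 10 µg/mL for 1 h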
Experimental: as §3

[12] = biological target: T2, soluble form of GPC3 core protein; test: competitive ELISA on coated soluble GPC3 core protein; labelled competitor biotin-M3C11;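 further: Biotin-labelled antibody added as 10 µL at 10 µg/mL for 1 h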
Experimental: as §3

[13] = biological target: T1, full-length human GPC3; test: flow cytometry, antibody at 5 µg/mL, CHO cells expressing human GPC3 (column CHO/human GPC3)
Experimental: as §1

[14] = biological target: T2, soluble form of GPC3 core protein; test: ELISA on GPC3 (the legend says only GPC3; the filing's ELISA uses plates coated with soluble GPC3 core protein) [upper panel]
[15] = biological target: T1, full-length human GPC3; test: flow cytometry, antibody at 5 µg/mL, HepG2 cells; remark: listed apart in the source
Experimental: as §1

[16] = biological target: T1, full-length human GPC3; test: flow cytometry, antibody at 5 µg/mL, HuH-7 cells; remark: listed apart in the source
Experimental: as §1

[17] = biological target: T2, soluble form of GPC3 core protein; test: ELISA on plate coated with soluble GPC3 core protein; remark: listed apart in the source
Experimental: In order to conveniently evaluate the binding activity of the anti-GPC3 antibody thus obtained, concentration-dependent binding of the antibody was detected against an immunoplate containing the soluble form of GPC3 core protein immobilized thereon. A 3-fold dilution series (12 dilutions in total) of the purified antibody at a concentration of 10 μg/mL was added, and an anti-mouse IgG antibody was added as the secondary antibody. […] Since the degree of color development varies depending on the color development time, data measured precisely after 1 hour was analyzed. […] The correlation between the concentration of antibody and the degree of color development was plotted and an approximate curve was obtained by using an analyzing software, GraphPad Prism. Its EC50 value was determined as the index of the binding activity.
The antibody was purified from the culture supernatant of the hybridoma using Hi Trap proteinG HP, and analyzed in accordance with the above-mentioned method.

[18] = biological target: T1, full-length human GPC3; test: flow cytometry, antibody at 5 µg/mL, CHO cells expressing human GPC3 (column CHO/human GPC3); remark: listed apart in the source
Experimental: as §1

T1 sequence (P51654 25-554 limits assumed): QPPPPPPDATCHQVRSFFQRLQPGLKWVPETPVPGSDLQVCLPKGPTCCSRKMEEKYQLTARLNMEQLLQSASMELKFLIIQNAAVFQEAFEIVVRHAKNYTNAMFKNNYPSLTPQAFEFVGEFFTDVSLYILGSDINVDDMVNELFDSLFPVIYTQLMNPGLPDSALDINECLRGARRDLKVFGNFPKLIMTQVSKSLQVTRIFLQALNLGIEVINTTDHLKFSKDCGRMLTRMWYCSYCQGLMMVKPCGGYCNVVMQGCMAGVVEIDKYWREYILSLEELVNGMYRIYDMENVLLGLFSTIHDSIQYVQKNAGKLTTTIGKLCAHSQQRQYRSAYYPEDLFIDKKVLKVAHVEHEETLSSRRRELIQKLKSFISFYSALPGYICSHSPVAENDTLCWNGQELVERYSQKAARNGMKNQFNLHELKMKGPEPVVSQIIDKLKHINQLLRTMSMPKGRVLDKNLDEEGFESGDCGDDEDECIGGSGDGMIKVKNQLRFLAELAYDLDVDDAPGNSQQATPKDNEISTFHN

- FACS X-mode value of the histogram [1]: 20
- FACS X-mode value of the histogram [2]: 2
- EC50 [3]: 0.85 nM
- Kd [4]: 6.2 nM
- koff [4]: 0.000496 s⁻¹
- kon [4]: 80000 M⁻¹ s⁻¹
- Inhibition of the binding of indicated biotin-Mab to sGPC3 core (%) [5]: 0.5%
- Inhibition of the binding of indicated biotin-Mab to sGPC3 core (%) [6]: 89.4%
- Inhibition of the binding of indicated biotin-Mab to sGPC3 core (%) [7]: 38.6%
- Inhibition of the binding of indicated biotin-Mab to sGPC3 core (%) [8]: 6.7%
- Inhibition of the binding of indicated biotin-Mab to sGPC3 core (%) [9]: 19.1%
- Inhibition of the binding of indicated biotin-Mab to sGPC3 core (%) [10]: -0.3%
- Inhibition of the binding of indicated biotin-Mab to sGPC3 core (%) [11]: 89%
- Inhibition of the binding of indicated biotin-Mab to sGPC3 core (%) [12]: 0.2%
- FACS X-mode value of the histogram [13]: 22
B1: M18D4 (antibody, human IgG1, kappa, V domains shown)
VH: EVQLQQSGTVLARPGASVKMSCKASGYTFTGYWMRWVKQRPGQGLEWIGAIYPGNSDTTYNQKFKGKAKLTAVTSVSTAYMELSSLTNEDSAVYYCSRSGDLTGGFAYWGQGTLVTVST
VL: DIVMTQAAFSNPVTLGTSTSISCRSSKSLLHSNGITYLYWYLQKPGQSPQLLIYQMSNLASGVPDRFSSSGSGTDFTLRISRVEAEDVGVYYCAQNLELPYTFGSGTKLEIKR
notes: Mouse monoclonal from hybridoma

- FACS X-mode value of the histogram [1]: 23
- FACS X-mode value of the histogram [2]: 2
- EC50 [3]: 1.13 nM
- Kd [4]: 23.5 nM
- koff [4]: 0.00139 s⁻¹
- kon [4]: 60000 M⁻¹ s⁻¹
- Inhibition of the binding of indicated biotin-Mab to sGPC3 core (%) [5]: 2.7%
- Inhibition of the binding of indicated biotin-Mab to sGPC3 core (%) [6]: 77.3%
- Inhibition of the binding of indicated biotin-Mab to sGPC3 core (%) [7]: 23.2%
- Inhibition of the binding of indicated biotin-Mab to sGPC3 core (%) [8]: 10.3%
- Inhibition of the binding of indicated biotin-Mab to sGPC3 core (%) [9]: 13.4%
- Inhibition of the binding of indicated biotin-Mab to sGPC3 core (%) [10]: 5.3%
- Inhibition of the binding of indicated biotin-Mab to sGPC3 core (%) [11]: 77.3%
- Inhibition of the binding of indicated biotin-Mab to sGPC3 core (%) [12]: 0.1%
- FACS X-mode value of the histogram [13]: 25
B2: M5B9 (antibody, V domains shown)
VH: B1 VH with R35H, T59N, V76A, S91A, Y95H, S97T, F106L, T119A
VL: DIVMTQAAFSNPVTLGTSASISCRSSKSLLHSNGITYLYWFLQKPGQSPQLLIYQMSNLASGVPDRFSSSGSGTDFTLRISRVEAEDVGVYYCAQNLELPYTFGSGTKLEIK
notes: as for B1

- FACS X-mode value of the histogram [1]: 29
- FACS X-mode value of the histogram [2]: 3
- EC50 [3]: 1.04 nM
- Kd [4]: 4.7 nM
- koff [4]: 0.000496 s⁻¹
- kon [4]: 110000 M⁻¹ s⁻¹
- Inhibition of the binding of indicated biotin-Mab to sGPC3 core (%) [5]: 0.6%
- Inhibition of the binding of indicated biotin-Mab to sGPC3 core (%) [6]: -10.3%
- Inhibition of the binding of indicated biotin-Mab to sGPC3 core (%) [7]: -5.9%
- Inhibition of the binding of indicated biotin-Mab to sGPC3 core (%) [8]: 7.2%
- Inhibition of the binding of indicated biotin-Mab to sGPC3 core (%) [9]: 79.2%
- Inhibition of the binding of indicated biotin-Mab to sGPC3 core (%) [10]: 7.8%
- Inhibition of the binding of indicated biotin-Mab to sGPC3 core (%) [11]: -21.6%
- Inhibition of the binding of indicated biotin-Mab to sGPC3 core (%) [12]: -7.7%
- FACS X-mode value of the histogram [13]: 20
B3: M10D2 (antibody, V domains shown)
VH: QVQLQQPGAELVKPGASVKLSCKASGYTFTSYWMHWVKQRPGQGLEWIGEIDPSDSYTYYNQKFRGKATLTVDKSSNTAYMQLSSLTSEDSAVYYCSRSNLGDGHYRFPAFPYWGQGTLVTVSA
VL: DIVLTQSPATLSVTPGDRVSLSCRASHSISNFLHWYPQKSHESPRLLIKYASQSISGIPSRFSGNGSGTDFTLSINSVETEDFGMYFCQQSNIWSLTFGAGTKLELK
notes: as for B1

- EC50 (read off the curve) [14]: ~0.01 µg/mL
B4: GC33 mouse-human chimeric antibody (antibody, V domains shown)
VH: QVQLQQSGAELVRPGASVKLSCKASGYTFTDYEMHWVKQTPVHGLKWIGALDPKTGDTAYSQKFKGKATLTADKSSSTAYMELRSLTSEDSAVYYCTRFYSYTYWGQGTLVTVSA
VL: DVVMTQTPLSLPVSLGDQASISCRSSQSLVHSNGNTYLHWYLQKPGQSPKLLIYKVSNRFSGVPDRFSGSGSGTDFTLKISRVEAEDLGVYFCSQNTHVPPTFGSGTKLEIK
notes: also called chimeric antibody GC33; mouse/mouse

- EC50 (read off the curve) [14]: ~0.01 µg/mL
B5: humanized GC33 H chain ver.f / L chain ver.a (antibody, V domains shown)
VH: QVQLVESGAEVKKPGASVKVSCKASGYTFTDYEMHWVRQAPGQGLEWMGALDPKTGDTAYSQKFKGRVTLTADKSTSTAYMELSSLRSEDTAVYYCTRFYSYTYWGQGTLVTVSS
VL: B4 VL with T7S, S14T, L15P, D17E, Q18P, K50Q, L88V, F92Y, S105Q

- EC50 (read off the curve) [14]: ~0.1 µg/mL
B6: humanized GC33 ver.a/ver.a (antibody, V domains shown)
VH: B5 VH with L70I, K74E, T97A
VL: B4 VL with T7S, S14T, L15P, D17E, Q18P, K50Q, L88V, F92Y, S105Q
notes: Human IgG (HEFg gamma1 vector) and human kappa constant regions

- EC50 (read off the curve) [14]: ~0.01 µg/mL
B7: humanized GC33 H chain ver.c / L chain ver.a (antibody, V domains shown)
VH: B5 VH with K74E
VL: B4 VL with T7S, S14T, L15P, D17E, Q18P, K50Q, L88V, F92Y, S105Q

- EC50 [3]: 0.25 nM
- Inhibition of the binding of indicated biotin-Mab to sGPC3 core (%) [5]: 95.7%
- Inhibition of the binding of indicated biotin-Mab to sGPC3 core (%) [6]: -1.8%
- Inhibition of the binding of indicated biotin-Mab to sGPC3 core (%) [7]: 9.3%
- Inhibition of the binding of indicated biotin-Mab to sGPC3 core (%) [8]: 24.9%
- Inhibition of the binding of indicated biotin-Mab to sGPC3 core (%) [9]: 22.3%
- Inhibition of the binding of indicated biotin-Mab to sGPC3 core (%) [10]: 15.6%
- Inhibition of the binding of indicated biotin-Mab to sGPC3 core (%) [11]: 2.7%
- Inhibition of the binding of indicated biotin-Mab to sGPC3 core (%) [12]: 71.3%
B8: M13B3 (antibody, V domains shown)
VH: EVHLVESGGGLVKPGGSLKLSCAASGFTFSNYAMSWVRQTPEKRLEWVAAINNNGDDTYYLDTVKDRFTISRDNAKNTLYLQMSSLRSEDTALYYCVRQGGAYWGQGTLVTVSA
VL: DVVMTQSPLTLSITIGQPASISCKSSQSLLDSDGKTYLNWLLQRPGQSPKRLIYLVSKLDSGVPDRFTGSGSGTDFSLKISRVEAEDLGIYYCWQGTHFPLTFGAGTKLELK
notes: as for B1

- FACS X-mode value of the histogram [1]: 34
- FACS X-mode value of the histogram [2]: 3
- EC50 [3]: 5.51 nM
- Inhibition of the binding of indicated biotin-Mab to sGPC3 core (%) [5]: -2.7%
- Inhibition of the binding of indicated biotin-Mab to sGPC3 core (%) [6]: 44.4%
- Inhibition of the binding of indicated biotin-Mab to sGPC3 core (%) [7]: 85.6%
- Inhibition of the binding of indicated biotin-Mab to sGPC3 core (%) [8]: 1.1%
- Inhibition of the binding of indicated biotin-Mab to sGPC3 core (%) [9]: 6.7%
- Inhibition of the binding of indicated biotin-Mab to sGPC3 core (%) [10]: 13.9%
- Inhibition of the binding of indicated biotin-Mab to sGPC3 core (%) [11]: 51.9%
- Inhibition of the binding of indicated biotin-Mab to sGPC3 core (%) [12]: -5.7%
- FACS X-mode value of the histogram [13]: 37
B9: M6B1 (antibody, V domains shown)
VH: EVQLVESGGDLVKPGGSLKLSCAASGFTFSSYAMSWVRQTPEKRLEWVAAINSNGGTTYYPDTMKDRFTISRDNAKNTLYLQMSSLRSEDSALYYCTRHNGGYENYGWFAYWGQGTLVTVSA
VL: DIQMTQSPSSLSASLGGKVTITCKASQDINKNIIWYQHKPGKGPRLLIWYTSTLQPGIPSRFSGSGSGRDYSFSISNLEPEDIATYYCLQYDNLPRTFGGGTKLEIK
notes: as for B1

- FACS X-mode value of the histogram [15]: 7.9
- FACS X-mode value of the histogram [16]: 1.5
- EC50 [17]: 3.83 nM
- FACS X-mode value of the histogram [18]: 5
B10: GC194 (antibody, V domains shown)
VH: EVQLVETGGGLVQPKGSLKLSCAASGFTFNASAMNWVRQAPGKGLEWVARIRSKSNNYAIYYADSVKDRFTISRDDSQSMLYLQMNNLKTEDTAMYYCVRDPGYYGNPWFAYWGQGTLVTVSA
VL: B2 VL with N33Y, G34D, F41Y, Y101P, S105G
